# Measurements: patent US20110144187, “APTAMER INHIBITION OF THROMBUS FORMATION” (published 2011)
# B1: 85B-2 B-TTP (ssDNA)
# DNA: CCTTCGTTGTCTGCCTTCGTAGGACCGCAGACATCGACGCAGGGAAAATCCGCAAGTCCAGCCAAATGCCACCCTTCAGAATTCGCACCA
# modifications: quinoline-8-boronic acid-modified T (B-TTP) replacing T outside the primer region
# B2: 85A TTP (ssDNA)
# DNA: CCTTCGTTGTCTGCCTTCGTAGCGGATCGAATTACGCGTTAACGGCAACCGATAACGGGACCGATTGCACACCCTTCAGAATTCGCACCA
# modifications: none (natural T)
# B3: 85C TTP (ssDNA)
# DNA: CCTTCGTTGTCTGCCTTCGTAGTCGACTCTGACGCATGGACGTATCCTGTGCGTATGCATTATGAAGCACACCCTTCAGAATTCGCACCA
# modifications: none (natural T)
# B4: 85B TTP (ssDNA)
# DNA: CCTTCGTTGTCTGCCTTCGTAGGACCGCAGACATCGACGCAGGGAAATTCCGCAAGTCCAGCCAAATGCCACCCTTCAGAATTCGCACCA
# modifications: none (natural T)
# B5: 85B-2 dTTP (ssDNA)
# DNA: CCTTCGTTGTCTGCCTTCGTAGGACCGCAGACATCGACGCAGGGAAAATCCGCAAGTCCAGCCAAATGCCACCCTTCAGAATTCGCACCA
# modifications: none (natural T)
# B6: 85A M-TTP (ssDNA)
# DNA: CCTTCGTTGTCTGCCTTCGTAGCGGATCGAATTACGCGTTAACGGCAACCGATAACGGGACCGATTGCACACCCTTCAGAATTCGCACCA
# modifications: 5-alkynyl-amide T without boronic acid (M-TTP) replacing T outside the primer region
# B7: 85A B-TTP, H2O2-treated (ssDNA)
# DNA: CCTTCGTTGTCTGCCTTCGTAGCGGATCGAATTACGCGTTAACGGCAACCGATAACGGGACCGATTGCACACCCTTCAGAATTCGCACCA
# modifications: B-TTP-derived T with boronic acid removed by peroxide oxidation
# B8: 85B-1 B-TTP (ssDNA)
# DNA: CCTTCGTTGTCTGCCTTCGTAGGACCGCAGACAACGACGCAGGGAAATTCCGCAAGTCCAGCCAAATGCCACCCTTCAGAATTCGCACCA
# modifications: quinoline-8-boronic acid-modified T (B-TTP) replacing T outside the primer region
# B9: 85B-3 dTTP (ssDNA)
# DNA: CCTTCGTTGTCTGCCTTCGTAGGACCGCAGACAACGACGCAGGGAAATACCGCAAGTCCAGCCAAATGCCACCCTTCAGAATTCGCACCA
# modifications: none (natural T)
# B10: 85B-4 dTTP (ssDNA)
# DNA: CCTTCGTTGTCTGCCTTCGTAGGACCGCAGACATCGACGCAGGGAAATTCCGCAAGACCAGCCAAAAGCCACCCTTCAGAATTCGCACCA
# modifications: none (natural T)
# B11: 85B-5 B-TTP (ssDNA)
# DNA: CCTTCGTTGTCTGCCTTCGTAGGACCGCAGACATCGACGCAGGGAAATTCCGCAAGTCCAGCCAAAAGCCACCCTTCAGAATTCGCACCA
# modifications: quinoline-8-boronic acid-modified T (B-TTP) replacing T outside the primer region
# B12: 85B-1 dTTP (ssDNA)
# DNA: CCTTCGTTGTCTGCCTTCGTAGGACCGCAGACAACGACGCAGGGAAATTCCGCAAGTCCAGCCAAATGCCACCCTTCAGAATTCGCACCA
# modifications: none (natural T)
# B13: 85B-5 dTTP (ssDNA)
# DNA: CCTTCGTTGTCTGCCTTCGTAGGACCGCAGACATCGACGCAGGGAAATTCCGCAAGTCCAGCCAAAAGCCACCCTTCAGAATTCGCACCA
# modifications: none (natural T)
# B14: 85B-4 B-TTP (ssDNA)
# DNA: CCTTCGTTGTCTGCCTTCGTAGGACCGCAGACATCGACGCAGGGAAATTCCGCAAGACCAGCCAAAAGCCACCCTTCAGAATTCGCACCA
# modifications: quinoline-8-boronic acid-modified T (B-TTP) replacing T outside the primer region
# B15: 85B-3 B-TTP (ssDNA)
# DNA: CCTTCGTTGTCTGCCTTCGTAGGACCGCAGACAACGACGCAGGGAAATACCGCAAGTCCAGCCAAATGCCACCCTTCAGAATTCGCACCA
# modifications: quinoline-8-boronic acid-modified T (B-TTP) replacing T outside the primer region
# How the values were obtained:
# [1] = tested on: fibrinogen (Homo sapiens), P02671-2+P02675+P02679-2; experiment: filter; conditions: quinoline-8-boronic acid-modified T (B-TTP) replacing T outside the primer region; average Kd of DNA pool after round 13
# fibrinogen (Homo sapiens), P02671-2+P02675+P02679-2, sequence (P02671 20-629, chain 1 of 3): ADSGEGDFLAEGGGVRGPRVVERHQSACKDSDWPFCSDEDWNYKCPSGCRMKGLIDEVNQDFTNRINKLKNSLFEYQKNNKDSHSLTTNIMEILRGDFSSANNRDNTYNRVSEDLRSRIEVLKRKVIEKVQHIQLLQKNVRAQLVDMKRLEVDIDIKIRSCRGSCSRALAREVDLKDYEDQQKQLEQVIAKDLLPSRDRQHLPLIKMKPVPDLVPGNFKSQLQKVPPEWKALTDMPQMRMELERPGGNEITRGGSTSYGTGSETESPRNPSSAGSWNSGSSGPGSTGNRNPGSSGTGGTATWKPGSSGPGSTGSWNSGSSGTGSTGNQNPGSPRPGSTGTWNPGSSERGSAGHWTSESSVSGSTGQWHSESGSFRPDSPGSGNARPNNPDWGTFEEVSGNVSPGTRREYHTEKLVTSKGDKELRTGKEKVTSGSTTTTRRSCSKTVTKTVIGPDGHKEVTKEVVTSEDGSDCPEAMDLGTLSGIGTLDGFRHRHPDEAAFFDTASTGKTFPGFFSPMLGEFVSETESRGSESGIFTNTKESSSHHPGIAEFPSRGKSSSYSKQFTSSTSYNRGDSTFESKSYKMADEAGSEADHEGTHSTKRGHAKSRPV
# fibrinogen (Homo sapiens), P02671-2+P02675+P02679-2, sequence (P02675 31-491, chain 2 of 3): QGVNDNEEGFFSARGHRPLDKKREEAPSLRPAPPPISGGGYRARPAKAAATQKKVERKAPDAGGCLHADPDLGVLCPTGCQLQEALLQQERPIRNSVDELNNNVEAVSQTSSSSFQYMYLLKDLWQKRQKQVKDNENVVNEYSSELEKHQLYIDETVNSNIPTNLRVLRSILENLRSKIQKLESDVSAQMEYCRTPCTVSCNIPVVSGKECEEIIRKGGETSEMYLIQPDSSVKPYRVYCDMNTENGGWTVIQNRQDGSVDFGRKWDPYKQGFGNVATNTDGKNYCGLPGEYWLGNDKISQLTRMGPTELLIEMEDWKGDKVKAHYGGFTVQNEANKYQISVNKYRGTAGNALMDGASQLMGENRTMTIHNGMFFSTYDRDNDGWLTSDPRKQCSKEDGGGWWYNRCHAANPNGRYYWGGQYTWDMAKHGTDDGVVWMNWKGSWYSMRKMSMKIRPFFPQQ
# fibrinogen (Homo sapiens), P02671-2+P02675+P02679-2, sequence (P02679 other isoform, or with tags, fused parts or gaps, chain 3 of 3): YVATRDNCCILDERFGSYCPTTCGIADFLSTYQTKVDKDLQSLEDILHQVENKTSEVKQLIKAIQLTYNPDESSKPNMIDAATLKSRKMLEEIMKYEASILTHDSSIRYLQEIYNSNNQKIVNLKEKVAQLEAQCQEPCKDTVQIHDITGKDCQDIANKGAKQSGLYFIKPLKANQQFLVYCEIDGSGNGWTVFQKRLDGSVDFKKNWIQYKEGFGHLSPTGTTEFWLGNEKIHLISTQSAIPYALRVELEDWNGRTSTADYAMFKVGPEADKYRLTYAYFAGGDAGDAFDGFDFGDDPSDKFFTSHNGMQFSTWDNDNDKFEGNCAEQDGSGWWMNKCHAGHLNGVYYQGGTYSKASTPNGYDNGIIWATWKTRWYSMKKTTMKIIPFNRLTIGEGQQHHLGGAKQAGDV
# fibrinogen [2] = molecular target: T1, fibrinogen (Homo sapiens, UniProt P02671-2;P02675;P02679-2 P02671-2:20-629,P02675:31-491,P02679-2:27-437); experiment: SPR; biotin-aptamer on streptavidin chip; conditions: tags: Sigma-Aldrich, from human plasma, about 60% protein, chain copies: 2
# T1 sequence (P02671 20-629, chain 1 of 3): as the sequence (P02671 20-629, chain 1 of 3) above
# T1 sequence (P02675 31-491, chain 2 of 3): as the sequence (P02675 31-491, chain 2 of 3) above
# T1 sequence (P02679 other isoform, or with tags, fused parts or gaps, chain 3 of 3): as the sequence (P02679 other isoform, or with tags, fused parts or gaps, chain 3 of 3) above
# Description: 0.2 M EDC and 0.05 M NHS were mixed in water. After degassing, 500 μL of this EDC-NHS solution was infused into both channels on the chip over a period of about 10 min (twice). Then a 1 mg/mL streptavidin stock solution was diluted 10-fold with 20 mM sodium acetate buffer at pH 5.2. The streptavidin solution (500 μL) was infused into both the detection and control channels over about 10 min period. […] 1M ethanolamine HCl solution (500 μL) (pH 8.5) was infused in over a period of 3 min to cap un-reacted (and activated) carboxyl sites. Then biotin-labeled aptamer (B-TTP or d-TTP) solution (500 μL, in PBS/T) was infused into the detection channel only over a period of about 10 min (twice). After aptamer immobilization, different fibrinogen concentrations were used in binding studies. In each run, fibrinogen solution was infused in at a flow rate of 0.05 mL/min for 6 min. After each injection, 1M ethanolamine HCl (pH 8.5) solution was infused in as the regeneration solution. All experiments were duplicated.
# The KD values were obtained for aptamer 85B (SEQ ID NO.: 14) and its mutational analogs by using a surface plasmon resonance (SPR) instrument. SPR is a method to detect the index of the refraction of surface bound layers, as described by Karlsson et al., (2000) J. Anal. Biochem. 278: 1-13, and Shimomura et al., (2001) Anal. Chim. Acta. 434: 223-230 both of which are incorporated herein by reference in their entireties). This method has been used to determine the kinetic on and off rates for the interactions between biomolecules and binding receptors. In the aptamer-fibrinogen binding studies, streptavidin was immobilized to chips coated with a SAM surface that has terminal carboxyl functional groups. Biotin-labeled DNA was subsequently immobilized on the chip through biotin-streptavidin interactions. Fibrinogen solutions of various concentrations were then used for binding constant determination using kinetic data, as described by Lin et al., (2007). […] Opin. Biotechnol. 8: 498-502; Myszka, D. G. (2000) Methods Enzymol. 323: 325-340; and Myszka & Rich (2000) Pharm. Sci. Technology Today 3: 310-317. Table 6 lists the KD values of 85B and its mutations.
# [3] = molecular target: T2, deglycosylated fibrinogen (TFMS-treated) (Homo sapiens, UniProt P02671-2;P02675;P02679-2 P02671-2:20-629,P02675:31-491,P02679-2:27-437); experiment: filter; equilibrium filtration; value as printed; conditions: tags: Sigma-Aldrich fibrinogen, chemically deglycosylated with trifluoromethanesulfonic acid; chain copies: 2; label: 32P (alpha-32P-dATP)
# T2 sequence (P02671 20-629, chain 1 of 3): as the sequence (P02671 20-629, chain 1 of 3) above
# T2 sequence (P02675 31-491, chain 2 of 3): as the sequence (P02675 31-491, chain 2 of 3) above
# T2 sequence (P02679 other isoform, or with tags, fused parts or gaps, chain 3 of 3): as the sequence (P02679 other isoform, or with tags, fused parts or gaps, chain 3 of 3) above
# Description: (§1) Dissociation constants in solution were determined by equilibrium filtration (Jenison et al., Science 1994, 263, 1425-1429; Huang & Szostak, RNA 2003, 9: 1456-1463;). Using this technique, the bound and unbound ligand (DNA) partition between the two portions were separated by a membrane. DNA was first amplified into dsDNA using two primers by PCR (25 cycles of 0.5 min at 94° C., 0.5 min at 46° C., and 0.5 min at 72° C., followed by 5 min at 72° C.). The dsDNA product was then split into ssDNA using one primer and α-³²P-dATP by one-round PCR. The ³²P-labeled ssDNA ligand (10 nM) and the protein (1-1000 nM) in the 100 μL of binding buffer were incubated for 15 min at 25° C. prior to loading into the Microcon YM-100 unit (Millipore, Billerica, Mass.). The solution was centrifuged at 13,000 g for 10 sec to saturate the membrane, and the filtrate was transferred back to the unit. […] Aliquots (10 μL) were taken from both the remaining solution and the filtrate, and radioactivity in each aliquot was determined by Beckman LS 6500 liquid scintillation counter. […]
# (§2) To determine the extent to which the aptamers 85A (SEQ ID NO.: 13), 85B (SEQ ID NO.: 14), and 85C (SEQ ID NO.: 15) bind specifically to fibrinogen, their dissociation constants (Kd) were measured using the equilibrium filtration method with radiolabeled α-³²P-dATP. […]
# [4] = molecular target: T3, periodate-treated fibrinogen (Homo sapiens, UniProt P02671-2;P02675;P02679-2 P02671-2:20-629,P02675:31-491,P02679-2:27-437); experiment: filter; equilibrium filtration; value as printed; conditions: tags: Sigma-Aldrich fibrinogen, glycans oxidised with sodium periodate; chain copies: 2; label: 32P (alpha-32P-dATP)
# T3 sequence (P02671 20-629, chain 1 of 3): as the sequence (P02671 20-629, chain 1 of 3) above
# T3 sequence (P02675 31-491, chain 2 of 3): as the sequence (P02675 31-491, chain 2 of 3) above
# T3 sequence (P02679 other isoform, or with tags, fused parts or gaps, chain 3 of 3): as the sequence (P02679 other isoform, or with tags, fused parts or gaps, chain 3 of 3) above
# Description: as §1, §2
# fibrinogen [5] = molecular target: T1, fibrinogen; experiment: filter; equilibrium filtration; Tables 3 and 4 give 102 ± 40; conditions: tags: Sigma-Aldrich, from human plasma, about 60% protein; chain copies: 2; label: 32P (alpha-32P-dATP)
# Description: as §1, §2
# [6] = molecular target: T2, deglycosylated fibrinogen (TFMS-treated); experiment: filter; equilibrium filtration; conditions: tags: Sigma-Aldrich fibrinogen, chemically deglycosylated with trifluoromethanesulfonic acid, chain copies: 2
# Description: (§3) Dissociation constants in solution were determined by equilibrium filtration (Jenison et al., Science 1994, 263, 1425-1429; Huang & Szostak, RNA 2003, 9: 1456-1463;). Using this technique, the bound and unbound ligand (DNA) partition between the two portions were separated by a membrane. DNA was first amplified into dsDNA using two primers by PCR (25 cycles of 0.5 min at 94° C., 0.5 min at 46° C., and 0.5 min at 72° C., followed by 5 min at 72° C.). The dsDNA product was then split into ssDNA using one primer and α-³²P-dATP by one-round PCR. The ³²P-labeled ssDNA ligand (10 nM) and the protein (1-1000 nM) in the 100 μL of binding buffer were incubated for 15 min at 25° C. prior to loading into the Microcon YM-100 unit (Millipore, Billerica, Mass.). The solution was centrifuged at 13,000 g for 10 sec to saturate the membrane, and the filtrate was transferred back to the unit. The solution was centrifuged for another 20 sec, and the filtrate (about 10 μL) was collected. Aliquots (10 μL) were taken from both the remaining solution and the filtrate, and radioactivity in each aliquot was determined by Beckman LS 6500 liquid scintillation counter. All binding assays were duplicated. The equilibrium dissociation constants (Kd) of the ligand-protein interaction were obtained by fitting the dependence of bound fractions of specific binding on the concentration of the […] to the equation Y=B max X/(Kd+X), using the SigmaPlot program.
# (§4) To determine the extent to which the aptamers 85A (SEQ ID NO.: 13), 85B (SEQ ID NO.: 14), and 85C (SEQ ID NO.: 15) bind specifically to fibrinogen, their dissociation constants (Kd) were measured using the equilibrium filtration method with radiolabeled α-³²P-dATP. The target substrate to which the aptamer was binding was fibrinogen (FIG. 12A), deglycosylated fibrinogen (FIG. 12B) and periodated fibrinogen (FIG. 12C).
# [7] = molecular target: T3, periodate-treated fibrinogen; experiment: filter; equilibrium filtration; conditions: tags: Sigma-Aldrich fibrinogen, glycans oxidised with sodium periodate, chain copies: 2
# Description: as §3, §4
# fibrinogen [8] = molecular target: T1, fibrinogen; experiment: filter; equilibrium filtration; Table 1 prints a different (93, possibly truncated) value; conditions: tags: Sigma-Aldrich, from human plasma, about 60% protein; chain copies: 2; label: 32P (alpha-32P-dATP)
# Description: as §1, §2
# fibrinogen [9] = molecular target: T1, fibrinogen; experiment: filter; equilibrium filtration, same buffer; conditions: tags: Sigma-Aldrich, from human plasma, about 60% protein; chain copies: 2; label: 32P (filtration) or 5'-biotin (SPR)
# Description: as §1, §2
# fibrinogen [10] = molecular target: T1, fibrinogen; experiment: filter; equilibrium filtration; conditions: tags: Sigma-Aldrich, from human plasma, about 60% protein; chain copies: 2; label: 32P (alpha-32P-dATP)
# Description: as §3, §4
# fibrinogen [11] = molecular target: T1, fibrinogen; experiment: filter; equilibrium filtration; peroxide-treated aptamer; conditions: tags: Sigma-Aldrich, from human plasma, about 60% protein; chain copies: 2; label: 32P (alpha-32P-dATP)
# [12] = label: 32P (filtration) or 5'-biotin (SPR)
molecule,measurement,setting,value
CCTTCGTTGTCTGCCTTCGTNNNNNNNNNNNNNNNNNNNNNNNNNNNNNNNNNNNNNNNNNNNNNNNNNNACCCTTCAGAATTCGCACCA [round 13 SELEX pool B-TTP],Kd,[1],5000 nM
B1,Kd,fibrinogen [2]; label: 5'-biotin,63.7 nM
B2,Kd,[3],60.2 nM
same,Kd,[4],67.4 nM
same,Kd,fibrinogen [5],102 nM
B3,Kd,[6]; label: 32P (alpha-32P-dATP),256 nM
same,Kd,[7]; label: 32P (alpha-32P-dATP),321 nM
same,Kd,fibrinogen [8],122 nM
B4,Kd,fibrinogen [9],63.8 nM
same,Kd,[6]; [12],140 nM
same,Kd,[7]; [12],130 nM
same,Kd,fibrinogen [2]; [12],127 nM
B5,Kd,fibrinogen [2]; label: 5'-biotin,127 nM
B6,Kd,fibrinogen [10],138 nM
B7,Kd,fibrinogen [11],173 nM
B8,Kd,fibrinogen [2]; label: 5'-biotin,205 nM
B9,Kd,fibrinogen [2]; label: 5'-biotin,233 nM
B10,Kd,fibrinogen [2]; label: 5'-biotin,238 nM
B11,Kd,fibrinogen [2]; label: 5'-biotin,329 nM
B12,Kd,fibrinogen [2]; label: 5'-biotin,507 nM
B13,Kd,fibrinogen [2]; label: 5'-biotin,1080 nM
B14,Kd,fibrinogen [2]; label: 5'-biotin,11.2 nM
B15,Kd,fibrinogen [2]; label: 5'-biotin,17.6 nM
